{
  "source": "paper PMC11229320",
  "about": "“Dynamics of the Herpes simplex virus DNA polymerase holoenzyme during DNA synthesis and proof-reading revealed by Cryo-EM”",
  "key": {"[1]": {"target": "T1, UL30 DNA polymerase catalytic subunit;UL42 processivity factor (Herpes simplex virus 1 (HHV-1);Herpes …, UniProt P04293;P10226 1-1235;1-488, |)", "T1 sequence (P04293 whole entry, chain 1 of 2)": "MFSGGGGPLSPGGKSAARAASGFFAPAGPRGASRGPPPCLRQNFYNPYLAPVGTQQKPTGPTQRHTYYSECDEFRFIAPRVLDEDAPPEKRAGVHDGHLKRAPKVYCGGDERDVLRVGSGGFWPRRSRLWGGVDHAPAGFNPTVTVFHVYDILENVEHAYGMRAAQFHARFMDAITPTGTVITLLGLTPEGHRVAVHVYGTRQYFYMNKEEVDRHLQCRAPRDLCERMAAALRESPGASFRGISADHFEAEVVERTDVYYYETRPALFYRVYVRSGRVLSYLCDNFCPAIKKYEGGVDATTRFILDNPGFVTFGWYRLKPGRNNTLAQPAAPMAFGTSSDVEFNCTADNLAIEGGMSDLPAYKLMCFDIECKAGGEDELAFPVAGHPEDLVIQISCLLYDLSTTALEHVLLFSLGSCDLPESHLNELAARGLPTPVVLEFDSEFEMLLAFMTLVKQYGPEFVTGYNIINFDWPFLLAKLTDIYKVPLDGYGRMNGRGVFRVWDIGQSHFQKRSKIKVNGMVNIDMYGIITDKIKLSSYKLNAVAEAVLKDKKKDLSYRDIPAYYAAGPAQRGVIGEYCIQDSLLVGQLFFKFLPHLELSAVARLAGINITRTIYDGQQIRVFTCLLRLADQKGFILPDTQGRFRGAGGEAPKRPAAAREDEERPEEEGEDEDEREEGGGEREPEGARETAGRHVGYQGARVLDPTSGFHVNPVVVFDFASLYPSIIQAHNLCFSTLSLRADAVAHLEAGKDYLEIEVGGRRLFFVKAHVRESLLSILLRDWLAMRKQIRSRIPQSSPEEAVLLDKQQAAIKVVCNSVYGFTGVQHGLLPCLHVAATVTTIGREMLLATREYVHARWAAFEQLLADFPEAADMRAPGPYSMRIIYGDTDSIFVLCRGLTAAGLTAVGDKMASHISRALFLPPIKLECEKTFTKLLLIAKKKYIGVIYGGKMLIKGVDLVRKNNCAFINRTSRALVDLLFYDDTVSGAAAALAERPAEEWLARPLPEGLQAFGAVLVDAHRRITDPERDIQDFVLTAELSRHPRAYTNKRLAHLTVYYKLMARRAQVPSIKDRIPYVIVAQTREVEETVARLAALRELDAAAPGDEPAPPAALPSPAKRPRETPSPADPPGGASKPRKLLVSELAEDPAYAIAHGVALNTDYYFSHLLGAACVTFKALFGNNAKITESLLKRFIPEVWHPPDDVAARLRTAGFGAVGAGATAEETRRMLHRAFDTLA", "T1 sequence (P10226 whole entry, chain 2 of 2)": "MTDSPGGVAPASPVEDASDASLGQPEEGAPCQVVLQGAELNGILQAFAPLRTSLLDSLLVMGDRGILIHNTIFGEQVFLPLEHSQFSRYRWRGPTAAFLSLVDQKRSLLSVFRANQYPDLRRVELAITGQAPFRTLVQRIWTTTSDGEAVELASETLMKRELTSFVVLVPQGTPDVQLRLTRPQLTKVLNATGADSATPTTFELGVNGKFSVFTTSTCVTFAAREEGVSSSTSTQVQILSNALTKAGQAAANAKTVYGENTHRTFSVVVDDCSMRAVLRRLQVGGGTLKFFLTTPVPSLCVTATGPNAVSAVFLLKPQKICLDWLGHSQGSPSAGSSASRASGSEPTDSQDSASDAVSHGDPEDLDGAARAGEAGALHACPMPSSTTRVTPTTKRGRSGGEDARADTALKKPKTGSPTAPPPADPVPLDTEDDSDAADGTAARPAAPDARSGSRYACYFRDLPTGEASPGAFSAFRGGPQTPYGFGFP", "test": "cryo-EM; pre-translocation state, open fingers; 2.4 A; Cryo-EM complex buffer not given in material; protein purified in 20 mM HEPES pH 7.8, 400 mM NaCl, 1.5 mM MgCl2, 1 mM DTT, 5% glycerol", "conditions": "protein: recombinant;recombinant; copies: 1;1; 5' overhang 26 nt on template (22 bp)"}, "[2]": {"target": "T1, UL30 DNA polymerase catalytic …", "test": "cryo-EM; halted elongation state, dATP in dNTP pocket; 1 mM dATP/dGTP/dTTP/ddCTP mix; Cryo-EM complex buffer not given in material; protein purified in 20 mM HEPES pH 7.8, 400 mM NaCl, 1.5 mM MgCl2, 1 mM DTT, 5% glycerol", "conditions": "protein: recombinant;recombinant; copies: 1;1; 5' overhang 14 nt on template after extension (22 nt before)"}, "[3]": {"target": "T1, UL30 DNA polymerase catalytic …", "test": "cryo-EM; DNA editing (exonuclease) state; also 8OJB, 8OJC (active site classes), 8OJD (beta-hairpin loop); Cryo-EM complex buffer not given in material; protein purified in 20 mM HEPES pH 7.8, 400 mM NaCl, 1.5 mM MgCl2, 1 mM DTT, 5% glycerol", "conditions": "protein: recombinant;recombinant; copies: 1;1; 5' overhang 21 nt on template; 2 mismatches (A/G) at primer 3' end"}, "[4]": {"target": "T1, UL30 DNA polymerase catalytic …", "test": "cryo-EM; DNA editing (exonuclease) state; also 9ENQ (active site); Cryo-EM complex buffer not given in material; protein purified in 20 mM HEPES pH 7.8, 400 mM NaCl, 1.5 mM MgCl2, 1 mM DTT, 5% glycerol", "conditions": "protein: recombinant;recombinant; copies: 1;1; 5' overhang 21 nt on template; 1 mismatch (A/G) at primer 3' end"}},
  "data": [
    {"binder": "pre-translocation primer-template (dsDNA) DNA 1: CGAAAGTACGTTATTGCGACTGGCCGTCGCTCTACAACGTCGTGACTG DNA 2: CAGTCACGACGTTGTAGAGCGA", "values": [
      {"measurement": "binding result", "setting": "[1]", "value": "binds"}
    ]},
    {"binder": "halted elongation primer-template (ddC-terminated) (dsDNA, 3'-terminal ddC on primer, added in situ: printed primer S5 extended with dATP, dGTP, dTTP, ddCTP to first template G) DNA 1: ATTTGCTGACCTTTGTTCTAATTGAGTTGGTTGGACGGCTGCGAGGCGATCAAGGTGTCGTAGTGGC DNA 2: GCCACTACGACACCTTGATCGCCTCGCAGCCGTCCAACCAACTCAATTAGAAC", "values": [
      {"measurement": "binding result", "setting": "[2]", "value": "binds"}
    ]},
    {"binder": "2-bp mismatch exonuclease primer-template (dsDNA, * before each of the last two A of primer (phosphorothioate?; not defined in material)) DNA 1: ATTTGCTGACCTTTGTTCTGGGGTGAGTTGGTTGGACGGCTGCGAGGCGATCAAGGTGTCGTAGTGGC DNA 2: GCCACTACGACACCTTGATCGCCTCGCAGCCGTCCAACCAACTCAAA", "values": [
      {"measurement": "binding result", "setting": "[3]", "value": "binds"}
    ]},
    {"binder": "1-bp mismatch exonuclease primer-template (dsDNA, * before each of the last two A of primer (phosphorothioate?; not defined in material)) DNA 1: ATTTGCTGACCTTTGTTCTGGGTGAGTTGGTTGGACGGCTGCGAGGCGATCAAGGTGTCGTAGTGGC DNA 2: GCCACTACGACACCTTGATCGCCTCGCAGCCGTCCAACCAACTCAA", "values": [
      {"measurement": "binding result", "setting": "[4]", "value": "binds"}
    ]}
  ]
}
